Experimental data: publication PMC8461307, “FHR-5 Serum Levels and CFHR5 Genetic Variations in Patients With Immune Complex-Mediated Membranoproliferative Glomerulonephritis and C3-Glomerulopathy” (Frontiers in Immunology, 2021)

Molecular target: T1, purified C3b (UniProt P01024 23-667; P01024 749-1663)
T1 construct: complement C3 beta chain, as in C3b; complement C3b alpha' chain (C3 alpha chain without C3a); also called C3b fragment; source: bought: Merck
Assay: SPR; ProteOn XPR36; recombinant FHR-5 variants amine-coupled on a GLC chip at 4,200-4,600 RU; C3b in serial dilutions as analyte in DPBS with 0.005% Tween-20, 50 µl/min; ovalbumin channel subtracted; bivalent analyte model, KD = kd/ka
Conditions: both partners purified

T1 sequence (P01024 23-667, chain 1 of 2): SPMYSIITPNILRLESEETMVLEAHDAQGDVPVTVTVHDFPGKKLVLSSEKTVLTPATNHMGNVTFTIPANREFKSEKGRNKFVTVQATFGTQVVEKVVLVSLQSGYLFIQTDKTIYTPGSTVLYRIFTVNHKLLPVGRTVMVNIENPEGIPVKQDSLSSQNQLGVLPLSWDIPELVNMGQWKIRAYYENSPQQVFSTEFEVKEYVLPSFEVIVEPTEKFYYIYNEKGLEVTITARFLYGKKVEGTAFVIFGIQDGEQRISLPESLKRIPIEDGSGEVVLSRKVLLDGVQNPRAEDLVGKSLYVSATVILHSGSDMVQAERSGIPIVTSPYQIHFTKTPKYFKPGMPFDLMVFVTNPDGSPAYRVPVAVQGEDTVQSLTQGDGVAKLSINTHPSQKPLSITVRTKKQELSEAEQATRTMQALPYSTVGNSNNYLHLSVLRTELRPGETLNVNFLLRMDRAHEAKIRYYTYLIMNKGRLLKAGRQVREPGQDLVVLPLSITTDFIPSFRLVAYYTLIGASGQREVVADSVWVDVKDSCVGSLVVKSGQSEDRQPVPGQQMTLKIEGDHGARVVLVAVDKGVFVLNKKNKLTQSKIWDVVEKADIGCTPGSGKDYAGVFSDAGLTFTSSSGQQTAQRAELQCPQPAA
T1 sequence (P01024 749-1663, chain 2 of 2): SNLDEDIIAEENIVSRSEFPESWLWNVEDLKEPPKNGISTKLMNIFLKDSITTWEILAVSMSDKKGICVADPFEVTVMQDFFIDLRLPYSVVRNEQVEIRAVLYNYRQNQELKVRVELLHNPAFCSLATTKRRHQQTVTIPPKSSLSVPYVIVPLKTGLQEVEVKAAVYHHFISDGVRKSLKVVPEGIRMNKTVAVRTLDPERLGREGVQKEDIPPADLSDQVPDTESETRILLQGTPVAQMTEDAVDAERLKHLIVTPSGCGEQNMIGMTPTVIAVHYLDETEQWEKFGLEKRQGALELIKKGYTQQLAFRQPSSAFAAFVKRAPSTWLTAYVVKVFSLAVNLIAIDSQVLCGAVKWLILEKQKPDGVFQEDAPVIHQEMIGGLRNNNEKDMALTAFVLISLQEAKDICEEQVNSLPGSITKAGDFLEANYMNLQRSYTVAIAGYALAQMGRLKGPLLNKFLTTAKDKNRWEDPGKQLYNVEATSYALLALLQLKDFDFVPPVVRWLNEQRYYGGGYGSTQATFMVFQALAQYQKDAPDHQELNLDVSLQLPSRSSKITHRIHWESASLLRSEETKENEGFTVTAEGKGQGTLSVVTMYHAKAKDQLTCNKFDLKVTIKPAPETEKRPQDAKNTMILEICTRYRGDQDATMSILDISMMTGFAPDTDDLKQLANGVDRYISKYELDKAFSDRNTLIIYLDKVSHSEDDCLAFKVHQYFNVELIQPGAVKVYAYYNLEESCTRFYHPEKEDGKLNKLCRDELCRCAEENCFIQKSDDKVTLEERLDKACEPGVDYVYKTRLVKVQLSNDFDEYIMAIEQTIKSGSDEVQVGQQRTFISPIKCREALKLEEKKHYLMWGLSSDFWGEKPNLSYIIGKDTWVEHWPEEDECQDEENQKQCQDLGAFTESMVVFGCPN

Binder | Kd
recombinant FHR-5 G278S (natural protein, human, UniProt Q9BXR6 19-569, looked up, complement Factor H-related protein 5 (FHR-5), human; amplified from the wtCFHR5 vector with a mutagenic primer; numbered from the ATG translation initiation site; Same construct as m1 with the patient variation G278S) EGTLCDFPKIHHGFLYDEEDYNPFSQVPTGEVFYYSCEYNFVSPSKSFWTRITCTEEGWSPTPKCLRMCSFPFVKNGHSESSGLIHLEGDTVQIICNTGYSLQNNEKNISCVERGWSTPPICSFTKGECHVPILEANVDAQPKKESYKVGDVLKFSCRKNLIRVGSDSVQCYQFGWSPNFPTCKGQVRSCGPPPQLSNGEVKEIRKEEYGHNEVVEYDCNPNFIINGPKKIQCVDGEWTTLPTCVEQVKTCGYIPELEYSYVQPSVPPYQHGVSVEVNCRNEYAMIGNNMITCINGIWTELPMCVATHQLKRCKIAGVNIKTLLKLSGKEFNHNSRIRYRCSDIFRYRHSVCINGKWNPEVDCTEKREQFCPPPPQIPNAQNMTTTVNYQDGEKVAVLCKENYLLPEAKEIVCKDGRWQSLPRCVESTAYCGPPPSINNGDTTSFPLSVYPPGSTVTYRCQSFYKLQGSVTVTCRNKQWSEPPRCLDPCVVSEENMNKNNIQLKWRNDGKLYAKTGDAVEFQCKFPHKAMISSPPFRAICQEGKFEYPICE | 20.5 µM
recombinant wild-type Factor H-related protein 5 (FHR-5WT) (natural protein, human, UniProt Q9BXR6 19-569, looked up, complement Factor H-related protein 5 (FHR-5), human; variations are numbered from the ATG translation initiation site; Secreted into the Sf9 supernatant; also called wild-type FHR-5; wtCFHR5) EGTLCDFPKIHHGFLYDEEDYNPFSQVPTGEVFYYSCEYNFVSPSKSFWTRITCTEEGWSPTPKCLRMCSFPFVKNGHSESSGLIHLEGDTVQIICNTGYSLQNNEKNISCVERGWSTPPICSFTKGECHVPILEANVDAQPKKESYKVGDVLKFSCRKNLIRVGSDSVQCYQFGWSPNFPTCKGQVRSCGPPPQLSNGEVKEIRKEEYGHNEVVEYDCNPNFIINGPKKIQCVDGEWTTLPTCVEQVKTCGYIPELEYGYVQPSVPPYQHGVSVEVNCRNEYAMIGNNMITCINGIWTELPMCVATHQLKRCKIAGVNIKTLLKLSGKEFNHNSRIRYRCSDIFRYRHSVCINGKWNPEVDCTEKREQFCPPPPQIPNAQNMTTTVNYQDGEKVAVLCKENYLLPEAKEIVCKDGRWQSLPRCVESTAYCGPPPSINNGDTTSFPLSVYPPGSTVTYRCQSFYKLQGSVTVTCRNKQWSEPPRCLDPCVVSEENMNKNNIQLKWRNDGKLYAKTGDAVEFQCKFPHKAMISSPPFRAICQEGKFEYPICE | 5.26 µM
recombinant FHR-5 R356H (natural protein, human, UniProt Q9BXR6 19-569, looked up, complement Factor H-related protein 5 (FHR-5), human; amplified from the wtCFHR5 vector with a mutagenic primer; histidine instead of arginine at position 356, a variation found in patients; numbered from the ATG translation initiation site; Same construct as m1 with the patient variation R356H) EGTLCDFPKIHHGFLYDEEDYNPFSQVPTGEVFYYSCEYNFVSPSKSFWTRITCTEEGWSPTPKCLRMCSFPFVKNGHSESSGLIHLEGDTVQIICNTGYSLQNNEKNISCVERGWSTPPICSFTKGECHVPILEANVDAQPKKESYKVGDVLKFSCRKNLIRVGSDSVQCYQFGWSPNFPTCKGQVRSCGPPPQLSNGEVKEIRKEEYGHNEVVEYDCNPNFIINGPKKIQCVDGEWTTLPTCVEQVKTCGYIPELEYGYVQPSVPPYQHGVSVEVNCRNEYAMIGNNMITCINGIWTELPMCVATHQLKRCKIAGVNIKTLLKLSGKEFNHNSRIHYRCSDIFRYRHSVCINGKWNPEVDCTEKREQFCPPPPQIPNAQNMTTTVNYQDGEKVAVLCKENYLLPEAKEIVCKDGRWQSLPRCVESTAYCGPPPSINNGDTTSFPLSVYPPGSTVTYRCQSFYKLQGSVTVTCRNKQWSEPPRCLDPCVVSEENMNKNNIQLKWRNDGKLYAKTGDAVEFQCKFPHKAMISSPPFRAICQEGKFEYPICE | 5.6 µM
